± gives the standard deviation of the averaged measurements.
system: ATP; test: switch fluorescence ratio, 500 uM ATP over buffer (Cy3 cluster intensity, sum of 5 cycles each) (fold (ratio)); higher = stronger signal-on switching upon ATP binding; sequences stand for … in TCGTCGGCAGCGTCAGATGTGTATAAGAGACAGTTTTTTTTTTTTTTTTTTTTTTTTT…TC; settings: aptamer strand: ATP DNA aptamer (quencher-CACCTGGGGGAGTATTGCGGAGGAAGG + anchor), 100 nM annealed; ATP concentration: 500 uM
How it was run: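 Values give the fluorescence ratio for each switch-domain sequence, averaged from per-cluster ratios of summed target-cycle to summed buffer-cycle Cy3 intensity. The Cy3-labelled switching-strand clusters sat on a modified Illumina MiSeq flow-cell, were annealed to 100 nM quencher-labelled ATP aptamer, and were imaged in selection buffer, then after 15 min with 500 uM ATP at 22 °C. Five cycles ran with NaOH stripping and re-annealing between them, and clusters outside 100-1000 RFU were excluded.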
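Note: ATP exposure 15 min at 22 °C before imaging.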

Sequence | switch fluorescence ratio
TGATTCTCGT | 1.02 ± 0.018
TTTAAATAAA | 1 ± 0.017
TACGATGACT | 1.19 ± 0.11
CGCTTATAGG | 1.03 ± 0.052
TGGGTATTGG | 1 ± 0.03
ACCCGATTGC | 1.29 ± 0.044
ATACTCTGTT | 0.9926 ± 0.0031
AGGGGATCGC | 0.996 ± 0.034
TCGGACGGAA | 2.17 ± 0.21
TAAGACGGGG | 1.01 ± 0.034
ATGGGTACGG | 1.02 ± 0.029
GAAGGGATGC | 1.26 ± 0.073
ATATTGATGT | 1.01 ± 0.037
GAACTCGGCG | 1.02 ± 0.031
TTTATTAGCA | 0.968 ± 0.05
TTTACTTGTG | 1.01 ± 0.035
TTTGGTTTTA | 1.004 ± 0.0077
ATGTGTACCC | 1.04 ± 0.016
GAGAGGTTTG | 0.9818 ± 0.008
TTTTTGGTGG | 1 ± 0.032
TGCTATTTAC | 1.1 ± 0.069
TACACCGTCA | 1.08 ± 0.023
ATTTTGTCTC | 1.01 ± 0.013

Sequence | switch fluorescence ratio
TGGTTCCAGT | 1.003 ± 0.0058
GTGGGTTTGC | 1.03 ± 0.03
GTGGGAAAGT | 1.04 ± 0.015
TTTATTTGCA | 0.9545 ± 0.0068
CACTATTAGT | 0.979 ± 0.01
ATCGATTGTT | 1.01 ± 0.031
GTGTCAATTT | 1.13 ± 0.17
GTTTGGTTGG | 1 ± 0.02
AAAAATTATT | 1.006 ± 0.0065
GGGGGATGGT | 0.978 ± 0.035
ACGGGGGCTG | 0.996 ± 0.037
CTGATGAGTT | 0.982 ± 0.019
CGCGAGCGTT | 0.995 ± 0.049
CGCGGTTGCG | 0.9668 ± 0.0054
CGGAAAGGGG | 0.978 ± 0.021
GTACTTCATC | 1.06 ± 0.058
TAAACCCTGC | 1.07 ± 0.032
TTAAGGGAGG | 0.992 ± 0.03
AGCAGTGGAC | 1.23 ± 0.016
AAGAGAGGCA | 1.02 ± 0.023
GGAACTGGAG | 1.07 ± 0.031
TTACATGTCC | 1.039 ± 0.0089
CGTTGAGGAA | 0.9853 ± 0.0038

Sequence | switch fluorescence ratio
ATTGGCAAAA | 1.01 ± 0.035
CAAGTTAATT | 0.987 ± 0.011
TTTGGGTTTT | 1.01 ± 0.054
GATGAGTATA | 1 ± 0.021
GAGCAGGGGG | 1.01 ± 0.042
GGGAAAAAGT | 0.985 ± 0.027
TCGTTATTTG | 1.004 ± 0.0078
AGATAGGGAT | 1.04 ± 0.053
ATTAGGAGTC | 0.999 ± 0.012
TATTCAAGTT | 1 ± 0.024
GGTTTTTCGA | 0.983 ± 0.034
TTGAATGAGG | 0.95006 ± 0.00095
AAGAGTTCCT | 1.03 ± 0.032
CAGCGCCGGG | 0.994 ± 0.017
ATGTAGTTGT | 0.979 ± 0.041
TTGACTGTTC | 1.04 ± 0.043
TCTTTAAAGA | 0.9785 ± 0.0083
AGGAGGCGCG | 1.05 ± 0.1
AATAGTGGGC | 1.01 ± 0.043
TCGATAGGGA | 1.01 ± 0.03
GATTTGTGTG | 0.978 ± 0.034
TATAGAGTTT | 1.01 ± 0.023
AATATAATGT | 1.03 ± 0.021

Sequence | switch fluorescence ratio
GACTACTAGC | 1.05 ± 0.045
GCTGTGGGTG | 1 ± 0.021
GGGGGTAGGG | 1.03 ± 0.073
TTGAGCAAGT | 1.14 ± 0.075
AATTTCACTT | 1.003 ± 0.0047
TTTAACCGGT | 1.047 ± 0.0073
TAAGTAGGGG | 0.981 ± 0.023
TTTCGAGGCT | 0.976 ± 0.019
GGGAGGATGT | 0.997 ± 0.022
GTGTGTTGTC | 1.01 ± 0.02
TTGCCGGTTT | 1.05 ± 0.021
AGTACGATTG | 1 ± 0.023
TGCTTGGGTC | 1.01 ± 0.028
CAAGGAAACG | 1.002 ± 0.0034
TGGGATAGAA | 0.996 ± 0.019
GGATGGGGTG | 1.01 ± 0.053
TCGCGCGGTA | 1.007 ± 0.01
GTTAGAAAAT | 1.01 ± 0.03
ATTGCAGTTT | 0.986 ± 0.022
TGATTGTGCG | 0.957 ± 0.021
ATTAAGTCGC | 1.01 ± 0.022
CATCGCTGTG | 0.998 ± 0.039
ACTTTGATGT | 1.01 ± 0.012

Sequence | switch fluorescence ratio
TAATTTATAC | 1.053 ± 0.0054
CAACAGAGTG | 1.07 ± 0.085
TAGAGAGGGA | 1.04 ± 0.096
AGTTAACTTT | 1.02 ± 0.028
CCTTAGGGGG | 1.24 ± 0.33
ATGAGATAGG | 0.982 ± 0.045
CATTTTGGGC | 0.992 ± 0.041
AGTACTAACT | 1.05 ± 0.048
GCTATCGGTT | 1.01 ± 0.024
GGTATGGCGC | 0.986 ± 0.058
CGGTACGAGC | 0.992 ± 0.046
TTTTAGTATA | 1.02 ± 0.045
TTGTAGGATA | 0.994 ± 0.012
CGAGAAGAGT | 1.01 ± 0.053
GGATGAATTG | 1.01 ± 0.018
GGGGGTGGTT | 0.99 ± 0.037
CTGGTAACCG | 1 ± 0.06
GGAATAAGGT | 1.01 ± 0.031
GTAAGGGAAT | 0.9718 ± 0.0065
CGTTCAACTC | 1.04 ± 0.016
TTCGAAATT | 1.02 ± 0.035
GAGGGGGAAG | 1 ± 0.049
GAAAGCGCGT | 0.965 ± 0.028

Sequence | switch fluorescence ratio
GATAGTGAAT | 0.962 ± 0.028
TTCCCGGGGT | 1.2 ± 0.32
GGTGAGGCAA | 1.19 ± 0.12
TCCTCAAATG | 1.607 ± 0.002
GACAAAACTA | 1.16 ± 0.064
ATAGGTCTGC | 0.975 ± 0.038
TGGGTCGGCA | 1.05 ± 0.023
GTTTGCGCAG | 1.02 ± 0.018
GGGGAGGATT | 0.986 ± 0.027
CTAGTGCTCG | 0.971 ± 0.022
TATTTAAAAG | 1.003 ± 0.009
CGGGAGAGGA | 0.988 ± 0.033
TTGGGCTTGG | 0.997 ± 0.033
AGTGGGGAGA | 1.02 ± 0.035
GTTATCTAGC | 0.994 ± 0.017
GAGTCAGGGT | 1.02 ± 0.011
GGTGTAGCGC | 1.015 ± 0.0075
AGGGACTAGG | 0.994 ± 0.011
TAGGTATGGC | 0.976 ± 0.012
CGTGGTTGTC | 0.9871 ± 0.0066
ATGTATTCAG | 0.96694 ± 0.00025
GTACTATTTT | 1.036 ± 0.0037
TGGTATGCGC | 0.9971 ± 0.0047

Sequence | switch fluorescence ratio
AATGGTCAT | 0.991 ± 0.071
TGCTCGTGCT | 1.01 ± 0.028
TTTTTTTGAG | 1.02 ± 0.026
GACTTATTGG | 1.02 ± 0.032
AGAGGTAGGG | 0.984 ± 0.035
TCTGTCTGAG | 0.988 ± 0.027
TGGATCACTT | 1.01 ± 0.028
TTGGGGTGCT | 0.992 ± 0.035
TTTTTGTTTT | 1 ± 0.035
ATAGTATTGA | 0.969 ± 0.022
GTGGGATTGG | 1.01 ± 0.027
ATCTTGTGTC | 0.945 ± 0.02
ATTGTTAATT | 1.013 ± 0.01
AACCTTATTT | 0.9965 ± 0.0022
TGTATGTGAG | 0.98 ± 0.054
TTGAGGAATA | 0.9922 ± 0.008
TTGACCGATT | 0.978 ± 0.041
AGGATAAGGA | 0.987 ± 0.029
CTATGTGGTG | 1.02 ± 0.054

From the supplement of paper PMC10126150
